The target in experiment [1] is T1, mouse PD-L1 Fc (mouse, UniProt Q9EP73 19-238).
T1 construct: Plate-coated reagent; not shown: Fc part
Briefly: competition ELISA, peptide at 3 and 10 uM against mouse PD-1 Fc on coated mouse PD-L1 Fc (FIG. 9A). On the procedure: More specifically, mouse and human WT and TF peptides (3 and 10 μM) were mixed with recombinant mouse PD-1 Fc and bound to a mouse PD-L1 Fc coated 96-well Immuno Maxisorp flat bottom plate. Binding was detected via a biotinylated anti-mouse PD-1 antibody, streptavidin-horseradish peroxidase (HRP), and 3,3′, 5,5′ Tetramethylbenzidine (TMB) substrate. Absorbance measurements were collected at 450 nm via a plate reader. The increased percent (%) of mouse (and human) PD-1/PD L1 inhibition was compared to a control (no peptide) sample. […] The differences between the human and mouse peptides are illustrated in FIG. 9B.
Background: ELISA stands for enzyme-linked immunosorbent assay.

Experiment [2] has as its target T2, recombinant human PD-L1 Fc (human, UniProt Q9NZQ7 19-239).
T2 construct: Recombinant reagent; not shown: Fc part
Briefly: summary of the examples (competition ELISA, peptide array).

In experiment [3] the target is T2, recombinant human PD-L1 Fc. Briefly: competition ELISA, peptides and combinations at 3 and 10 uM against human PD-1 Fc on coated human PD-L1 Fc (FIG. 5A).

T2 sequence (Q9NZQ7 19-239 limits assumed): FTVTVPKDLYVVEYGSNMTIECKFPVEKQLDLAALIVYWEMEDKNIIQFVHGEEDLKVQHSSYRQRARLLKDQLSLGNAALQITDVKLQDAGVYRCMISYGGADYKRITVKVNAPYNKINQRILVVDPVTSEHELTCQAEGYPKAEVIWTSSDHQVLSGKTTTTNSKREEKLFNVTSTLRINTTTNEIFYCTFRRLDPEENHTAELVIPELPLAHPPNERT
T1 sequence (Q9EP73 19-238 limits assumed): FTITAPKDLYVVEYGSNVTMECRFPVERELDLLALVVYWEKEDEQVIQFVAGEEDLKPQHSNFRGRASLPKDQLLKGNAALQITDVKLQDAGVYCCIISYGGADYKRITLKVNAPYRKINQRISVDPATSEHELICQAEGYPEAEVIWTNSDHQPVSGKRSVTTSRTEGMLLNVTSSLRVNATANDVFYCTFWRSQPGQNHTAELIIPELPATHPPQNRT

Regarding WNRLSPSNQT [Mouse WT peptide (SEQ ID NO:35, WNRLSPSNQT)], the binding result in experiment [1] was “binds”.

With TRYPSPSPKPEGRF [Mouse TF peptide (SEQ ID NO:36, TRYPSPSPKPEGRF)], the binding result in experiment [1] is listed as “binds”.

B1: WT peptide (SEQ ID NO:1, WYRMSPSNQT) (peptide)
peptide: WYRMSPSNQT
notes: Chemically synthesized peptide found by a peptide array method; also called human WT peptide
For the molecule B1, the binding result in experiment [2] is “binds”.

Regarding EYRMSPSNQT (A derivative of the WT peptide (W1E)) [ET peptide (SEQ ID NO:25, EYRMSPSNQT)], the binding result in experiment [3] is “binds”.

For YYRMSPSNQT (A derivative of the WT peptide (W1Y)) [YT peptide (SEQ ID NO:28, YYRMSPSNQT)], the binding result in experiment [3] is “binds”.

The record behind these values is patent US20180141975A1 (VIROGIN BIOTECH CANADA, published 2018).
